In the supplement of paper PMC5998384:

Experiments:
[1] = test system: HeLa Kyoto; assay: solubility change mitosis vs G1/S (difference of NP-40 vs SDS log2 ratios) (log2 ratio difference); higher = more soluble in mitosis
[2] = test system: HeLa Kyoto; assay: melting temperature (median over replicates), in situ; higher = more thermally stable
[3] = test system: HeLa Kyoto; assay: solubility in G1/S (NP-40 vs SDS abundance) (log2 ratio); higher = more soluble; conditions: cell cycle stage: G1/S
[4] = test system: HeLa Kyoto; assay: thermal stability score vs G1/S (z-score of summed log2 fold changes over temperatures); higher = more thermally stable than in G1/S
[5] = cell cycle stage: early G1 (4.5 h after nocodazole release)
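For melting temperature (median over replicates), in situ in this document: HeLa Kyoto cells synchronized by double thymidine or nocodazole block, proteins quantified by TMT10plex mass spectrometry, three independent biological replicates.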
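For solubility change mitosis vs G1/S (difference of NP-40 vs SDS log2 ratios) in this document: synchronized HeLa Kyoto cells (double thymidine block for G1/S, nocodazole release for mitosis), protein amounts in NP-40 versus SDS lysates quantified by mass spectrometry, three biological replicates.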
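For solubility in G1/S (NP-40 vs SDS abundance) in this document: HeLa Kyoto cells arrested at G1/S by double thymidine block, proteins quantified by TMT10plex mass spectrometry in mild NP-40 versus SDS extracts, three biological replicates.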
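For thermal stability score vs G1/S (z-score of summed log2 fold changes over temperatures) in this document: synchronized HeLa Kyoto cells, proteins quantified by TMT10plex mass spectrometry, three biological replicates, mitosis taken 0.5 h after nocodazole release, G1/S directly after double thymidine block.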

In the case of “MKEEKEHRPKEKRVTLLTPAGATGSGGGTSGDSSKGEDKQDRNKEKKEALSKVVIRRLPPTLTKEQLQEHLQPMPEHDYFEFFSNDTSLYPHMYARAYINFKNQEDIILFRDRFDGYVFLDNKGQEYPAIVEFAPFQKAAKKKTKKRDTKVGTIDDDPEYRKFLESYATDNEKMTSTPETLLEEIEAKNRELIAKKTTPLLSFLKNKQRMREEKREERRRREIERKRQREEERRKWKEEEKRKRKDIEKLKKIDRIPERDKLKDEPKIKVHRFLLQAVNQKNLLKKPEKGDEKELDKREKAKKLDKENLSDERASGQSCTLPKRSDSELKDEKPKRPEDESGRDYREREREYERDQERILRERERLKRQEEERRRQKERYEKEKTFKRKEEEMKKEKDTLRDKGKKAESTESIGSSEKTEKKEEVVKRDRIRNKDRPAMQLYQPGARSRNRLCPPDDSTKSGDSAAERKQESGISHRKEGGEE [UPF3B]”, the “solubility change mitosis (log2)” value [1] is reported as 0.245, the melting temperature ([2]; cell cycle stage: G1/S) is reported as 50.6 °C and the melting temperature ([2]; cell cycle stage: mitosis) is reported as 50.5 °C. The “solubility in G1/S (log2)” value [3] was -0.279, the thermal stability score [4, 5] was 0.0687 and the thermal stability score ([4]; cell cycle stage: mitosis) was -0.398.

In the case of “MKEEVKGIPVRVALRCRPLVPKEISEGCQMCLSFVPGEPQVVVGTDKSFTYDFVFDPSTEQEEVFNTAVAPLIKGVFKGYNATVLAYGQTGSGKTYSMGGAYTAEQENEPTVGVIPRVIQLLFKEIDKKSDFEFTLKVSYLEIYNEEILDLLCPSREKAQINIREDPKEGIKIVGLTEKTVLVALDTVSCLEQGNNSRTVASTAMNSQSSRSHAIFTISLEQRKKSDKNSSFRSKLHLVDLAGSERQKKTKAEGDRLKEGININRGLLCLGNVISALGDDKKGGFVPYRDSKLTRLLQDSLGGNSHTLMIACVSPADSNLEETLNTLRYADRARKIKNKPIVNIDPQTAELNHLKQQVQQLQVLLLQAHGGTLPGSITVEPSENLQSLMEKNQSLVEENEKLSRGLSEAAGQTAQMLERIILTEQANEKMNAKLEELRQHAACKLDLQKLVETLEDQELKENVEIICNLQQLITQLSDETVACMAAAIDTAVEQEAQVETSPETSRSSDAFTTQHALRQAQMSKELVELNKALALKEALARKMTQNDSQLQPIQYQYQDNIKELELEVINLQKEKEELVLELQTAKKDANQAKLSERRRKRLQELEGQIADLKKKLNEQSKLLKLKESTERTVSKLNQEIRMMKNQRVQLMRQMKEDAEKFRQWKQKKDKEVIQLKERDRKRQYELLKLERNFQKQSNVLRRKTEEAAAANKRLKDALQKQREVADKRKETQSRGMEGTAARVKNWLGNEIEVMVSTEEAKRHLNDLLEDRKILAQDVAQLKEKKESGENPPPKLRRRTFSLTEVRGQVSESEDSITKQIESLETEMEFRSAQIADLQQKLLDAESEDRPKQRWENIATILEAKCALKYLIGELVSSKIQVSKLESSLKQSKTSCADMQKMLFEERNHFAEIETELQAELVRMEQQHQEKVLYLLSQLQQSQMAEKQLEESVSEKEQQLLSTLKCQDEELEKMREVCEQNQQLLRENEIIKQKLTLLQVASRQKHLPKDTLLSPDSSFEYVPPKPKPSRVKEKFLEQSMDIEDLKYCSEHSVNEHEDGDGDDDEGDDEEWKPTKLVKVSRKNIQGCSCKGWCGNKQCGCRKQKSDCGVDCCCDPTKCRNRQQGKDSLGTVERTQDSEGSFKLEDPTEVTPGLSFFNPVCATPNSKILKEMCDVEQVLSKKTPPAPSPFDLPELKHVATEYQENKAPGKKKKRALASNTSFFSGCSPIEEEAH [KIF4A]”, the “solubility change mitosis (log2)” value [1] is reported as 0.00592, the melting temperature ([2]; cell cycle stage: G1/S) is reported as 45.7 °C and the melting temperature ([2]; cell cycle stage: mitosis) is reported as 48.8 °C. The “solubility in G1/S (log2)” value [3] was 0.00342, the thermal stability score [4, 5] was 4.91 and the thermal stability score ([4]; cell cycle stage: mitosis) was 8.64.

In the case of “MKENKENSSPSVTSANLDHTKPCWYWDKKDLAHTPSQLEGLDPATEARYRREGARFIFDVGTRLGLHYDTLATGIIYFHRFYMFHSFKQFPRYVTGACCLFLAGKVEETPKKCKDIIKTARSLLNDVQFGQFGDDPKEEVMVLERILLQTIKFDLQVEHPYQFLLKYAKQLKGDKNKIQKLVQMAWTFVNDSLCTTLSLQWEPEIIAVAVMYLAGRLCKFEIQEWTSKPMYRRWWEQFVQDVPVDVLEDICHQILDLYSQGKQQMPHHTPHQLQQPPSLQPTPQVPQVQQSQPSQSSEPSQPQQKDPQQPAQQQQPAQQPKKPSPQPSSPRQVKRAVVVSPKEENKAAEPPPPKIPKIETTHPPLPPAHPPPDRKPPLAAALGEAEPPGPVDATDLPKVQIPPPAHPAPVHQPPPLPHRPPPPPPSSYMTGMSTTSSYMSGEGYQSLQSMMKTEGPSYGALPPAYGPPAHLPYHPHVYPPNPPPPPVPPPPASFPPPAIPPPTPGYPPPPPTYNPNFPPPPPRLPPTHAVPPHPPPGLGLPPASYPPPAVPPGGQPPVPPPIPPPGMPPVGGLGRAAWMR [CCNK]”, the “solubility change mitosis (log2)” value [1] is reported as 0.0659, the melting temperature ([2]; cell cycle stage: G1/S) is reported as 52.9 °C and the melting temperature ([2]; cell cycle stage: mitosis) is reported as 52 °C. For the same sequence, the “solubility in G1/S (log2)” value [3] was -0.035, the thermal stability score [4, 5] was 0.297 and the thermal stability score ([4]; cell cycle stage: mitosis) was 1.83.

For “MKGMSHEPKSPSLGMLSTATRTTATVNPLTPSPLNGALVPSGSPATSSALSAQAAPSSSFAAALRKLAKQAEEPRGSSLSSESSPVSSPATNHSSPASTPKRVPMGPIIVPPGGHSVPSTPPVVTIAPTKTVNGVWRSESRQDAGSRSSSGGRERLIVEPPLPQEKAGGPAIPSHLLSTPYPFGLSPSSVVQDSRFPPLNLQRPVHHVVPPSTVTEDYLRSFRPYHTTDDLRMSSLPPLGLDPATAAAYYHPSYLAPHPFPHPAFRMDDSYCLSALRSPFYPIPTPGSLPPLHPSAMHLHLSGVRYPPELSHSSLAALHSERMSGLSAERLQMDEELRREREREREREREREADREREKEREREREKEREQEKEREREKERERELERQREQRAREKELLAAKALEPSFLPVAELHGLRGHATEERGKPSEQLTPTRAEKLKDAGLQAPKPVQHPLHPVPTPHHTVPSLISNHGIFSLPSSSAATALLIQRTNEEEKWLARQRRLRQEKEDRQSQVSEFRQQVLEQHLDMGRPPVPAEAEHRPESTTRPGPNRHEPGGRDPPQHFGGPPPLISPKPQLHAAPTALWNPVSLMDNTLETRRAESHSLHSHPAAFEPSRQAAVPLVKVERVFCPEKAEEGPRKREPAPLDKYQPPPPPPREGGSLEHQPFLPGPGPFLAELEKSTQTILGQQRASLPQAATFGELSGPLKPGSPYRPPVPRAPDPAYIYDEFLQQRRRLVSKLDLEERRRREAQEKGYYYDLDDSYDESDEEEVRAHLRCVAEQPPLKLDTSSEKLEFLQLFGLTTQQQKEELVAQKRRKRRRMLRERSPSPPTIQSKRQTPSPRLALSTRYSPDEMNNSPNFEEKKKFLTIFNLTHISAEKRKDKERLVEMLRAMKQKALSAAVADSLTNSPRDSPAVSLSEPATQQASLDVEKPVGVAASLSDIPKAAEPGKLEQVRPQELSRVQELAPASGEKARLSEAPGGKKSLSMLHYIRGAAPKDIPVPLSHSTNGKSKPWEPFVAEEFAHQFHESVLQSTQKALQKHKGSVAVLSAEQNHKVDTSVHYNIPELQSSSRAPPPQHNGQQEPPTARKGPPTQELDRDSEEEEEEDDEDGEDEEEVPKRKWQGIEAVFEAYQEHIEEQNLERQVLQTQCRRLEARHYSLSLTAEQLSHSVAELRSQKQKMVSERERLQAELDHLRKCLALPAMHWPRGYLKGYPR [GSE1]”, the “solubility change mitosis (log2)” value [1] was 0.0661, the melting temperature ([2]; cell cycle stage: G1/S) was 50.8 °C and the melting temperature ([2]; cell cycle stage: mitosis) was 49.9 °C. For the same sequence, the “solubility in G1/S (log2)” value [3] was 0.0704, the thermal stability score [4, 5] was -0.121 and the thermal stability score ([4]; cell cycle stage: mitosis) was 0.454.

For “MKIFCSRANPTTGSVEWLEEDEHYDYHQEIARSSYADMLHDKDRNVKYYQGIRAAVSRVKDRGQKALVLDIGTGTGLLSMMAVTAGADFCYAIEVFKPMADAAVKIVEKNGFSDKIKVINKHSTEVTVGPEGDMPCRANILVTELFDTELIGEGALPSYEHAHRHLVEENCEAVPHRATVYAQLVESGRMWSWNKLFPIHVQTSLGEQVIVPPVDVESCPGAPSVCDIQLNQVSPADFTVLSDVLPMFSIDFSKQVSSSAACHSRRFEPLTSGRAQVVLSWWDIEMDPEGKIKCTMAPFWAHSDPEEMQWRDHWMQCVYFLPQEEPVVQGSALYLVAHHDDYCVWYSLQRTSPEKNERVRQMRPVCDCQAHLLWNRPRFGEINDQDRTDRYVQALRTVLKPDSVCLCVSDGSLLSVLAHHLGVEQVFTVESSAASHKLLRKIFKANHLEDKINIIEKRPELLTNEDLQGRKVSLLLGEPFFTTSLLPWHNLYFWYVRTAVDQHLGPGAMVMPQAASLHAVVVEFRDLWRIRSPCGDCEGFDVHIMDDMIKRALDFRESREAEPHPLWEYPCRSLSEPWQILTFDFQQPVPLQPLCAEGTVELRRPGQSHAAVLWMEYHLTPECTLSTGLLEPADPEGGCCWNPHCKQAVYFFSPAPDPRALLGGPRTVSYAVEFHPDTGDIIMEFRHADTPD [PRMT7]”, the “solubility change mitosis (log2)” value [1] was -0.0142, the melting temperature ([2]; cell cycle stage: G1/S) was 49.5 °C and the melting temperature ([2]; cell cycle stage: mitosis) was 51 °C. The “solubility in G1/S (log2)” value [3] was -0.014, the thermal stability score [4, 5] was 0.131 and the thermal stability score ([4]; cell cycle stage: mitosis) was 1.01.

For “MKKDVRILLVGEPRVGKTSLIMSLVSEEFPEEVPPRAEEITIPADVTPERVPTHIVDYSEAEQSDEQLHQEISQANVICIVYAVNNKHSIDKVTSRWIPLINERTDKDSRLPLILVGNKSDLVEYSSMETILPIMNQYTEIETCVECSAKNLKNISELFYYAQKAVLHPTGPLYCPEEKEMKPACIKALTRIFKISDQDNDGTLNDAELNFFQRICFNTPLAPQALEDVKNVVRKHISDGVADSGLTLKGFLFLHTLFIQRGRHETTWTVLRRFGYDDDLDLTPEYLFPLLKIPPDCTTELNHHAYLFLQSTFDKHDLDRDCALSPDELKDLFKVFPYIPWGPDVNNTVCTNERGWITYQGFLSQWTLTTYLDVQRCLEYLGYLGYSILTEQESQASAVTVTRDKKIDLQKKQTQRNVFRCNVIGVKNCGKSGVLQALLGRNLMRQKKIREDHKSYYAINTVYVYGQEKYLLLHDISESEFLTEAEIICDVVCLVYDVSNPKSFEYCARIFKQHFMDSRIPCLIVAAKSDLHEVKQEYSISPTDFCRKHKMPPPQAFTCNTADAPSKDIFVKLTTMAMYPHVTQADLKSSTFWLRASFGATVFAVLGFAMYKALLKQR [RHOT1]”, the “solubility change mitosis (log2)” value [1] was -0.0628, the melting temperature ([2]; cell cycle stage: G1/S) was 52.8 °C and the melting temperature ([2]; cell cycle stage: mitosis) was 52.5 °C. The “solubility in G1/S (log2)” value [3] was -0.379, the thermal stability score [4, 5] was -0.722 and the thermal stability score ([4]; cell cycle stage: mitosis) was -1.26.

With “MKKFFQEFKADIKFKSAGPGQKLKESVGEKAHKEKPNQPAPRPPRQGPTNEAQMAAAAALARLEQKQSRAWGPTSQDTIRNQVRKELQAEATVSGSPEAPGTNVVSEPREEGSAHLAVPGVYFTCPLTGATLRKDQRDACIKEAILLHFSTDPVAASIMKIYTFNKDQDRVKLGVDTIAKYLDNIHLHPEEEKYRKIKLQNKVFQERINCLEGTHEFFEAIGFQKVLLPAQDQEDPEEFYVLSETTLAQPQSLERHKEQLLAAEPVRAKLDRQRRVFQPSPLASQFELPGDFFNLTAEEIKREQRLRSEAVERLSVLRTKAMREKEEQRGLRKYNYTLLRVRLPDGCLLQGTFYARERLGAVYGFVREALQSDWLPFELLASGGQKLSEDENLALNECGLVPSALLTFSWDMAVLEDIKAAGAEPDSILKPELLSAIEKLL [UBXN6]” the “solubility change mitosis (log2)” value [1] was -0.0563, the melting temperature ([2]; cell cycle stage: mitosis) was 47.8 °C and the “solubility in G1/S (log2)” value [3] was 0.337. For the same sequence, the thermal stability score [4, 5] was 0.361 and the thermal stability score ([4]; cell cycle stage: mitosis) was 0.361.
